# Laboratory results: the Immune Epitope Database (IEDB)
# Columns and labels:
# [1] = biological target: HLA-A*11:01; assay: IEDB peptide-MHC binding, purified MHC/competitive/radioactivity; filed as Kd, often an IC50 or EC50 that approximates it; ≥ and ≤ were set here for values at or beyond the usual limits of such assays; settings: source organism: Vaccinia virus WR
# [2] = biological target: HLA-B*07:02; assay: as above; settings: source organism: Vaccinia virus WR
sequence,measurement,setting,value
AFEFINSLLK,Kd,[1],470 nM
LPRPDTRHL,Kd,[2],14 nM
RPSTRNFFEL,Kd,[2],11 nM
